US20160058829A1, “ANTI-FIBROTIC PEPTIDES AND THEIR USE IN METHODS FOR TREATING DISEASES AND DISORDERS CHARACTERIZED BY FIBROSIS” (Thrasos Innovation, Inc., priority 2011, published 2016)
Positions of bridges follow the written chain, without caps; N, C: chain ends.

Experiments:
[1] = Pharmacokinetics and tissue distribution of 125I-labeled THR-123; assay type: in vivo, Wistar rats
From the text: FIG. 45A-FIG. 45G Pharmacokinetics of THR-123. FIG. 45A. BMP7 structure figure with the residue weights resulting from the analysis mapped on to it. FIG. 45B, FIG. 45C. Radio-ligand receptor binding assays specific for individual type I receptors, Alk-3 (FIG. 45B) and Alk-6 (FIG. 45C). Highly purified extra-cellular domain (ECD) of Alk-3 or Alk-6 (expressed as a fusion protein with Fc domain) served as a receptor. In each assay purified receptor was immobilized on each well and peptide analog or unlabeled BMP7 was added, followed by ^125I-labeled BMP7. Radiolabeled BMP7 complex was counted in an auto-gamma counter. Results were expressed as the mean±s.e.m. Unlabeled BMP7, which served as a positive control in both assays, gave linear dose-related response curves. FIG. 45D, FIG. 45E. Concentration of THR-123 in systemic circulation of Wistar rats following iv injection of THR-123 (^125I-Tyr) via the tail vein determined by total radioactivity measurement. […] FIG. 45F. Tissue distribution of ^125I-THR-123. Six hours after intravenous administration of ^125I labeled-THR-123 in rats at a dose of 6.25 mg/kg-body weight, tissues were harvested and analyzed by automatic gamma well counter. […] FIG. 45G. Oral administration of THR-123 and elimination of THR-123 from the body. Radioactivity of orally administrated ^125I labeled-THR-123 at a dose of 5 mg/kg body weight was localized in the kidney between 1 and 6 hours after administration and peaked at around 3 hours.
The persistence of THR-123 in systemic circulation was evaluated using iv-administered ^125I-labeled compound and following the radioactivity decay.

COL4A3−/− mice = test: COL4A3 deficient mice (Alport syndrome model); assay type: in vivo
From the text: FIG. 64a-FIG. 64N […] inhibits Renal Fibrosis in the COL4A3 Deficient mice. FIG. 64A-FIG. 64C. Representative histological PAS staining of glomeruli from 16 weeks old wild type (FIG. 64A); 16 weeks old COL4A3−/− (FIG. 64B), and 16 weeks old COL4A3−/− mice treated with THR-123 (FIG. 64C), original magnification ×400. D-F. Representative histological Masson's trichrome staining of kidneys from 16 weeks old wild type (FIG. 64D); 16 weeks old COL4A3−/− (FIG. 64E), and 16 weeks old COL4A3−/− mice treated with THR-123 (FIG. 64F), original magnification ×100. FIG. 64G-FIG. 64I. Morphometric analyses from 16 weeks old wild type (n=5), COL4A3−/− (n=5) and COL4A3−/− mice treated with THR-123 (n=5) assessing percent normal glomeruli (FIG. 64G), tubular damage index (FIG. 64H), relative interstitial volume (FIG. 64I). FIG. 64J. Blood urea nitrogen measurement for […] wild type (n=5), 16 weeks old COL4A3−/− (n=5) and COL4A3−/− mice treated with THR-123 (n=5). FIG. 64K-FIG. 64M. FSP1/E-cadherin immunolabeling of kidney. Representative results are shown. FIG. 64N. Percent of E-cadherin/FSP1double positive tubule, 500 tubules per slide, 5 slides per experimental group.
Eight weeks old COL4A3^−/− mice are treated either THR-123 (p.o. 5 mg/Kg/day) or vehicle. COL4A3^−/− mice are sacrificed at 16 weeks of age.
For morphometric analyses of percent normal glomeruli, 100 glomeruli were counted per slide from random fields of view, and five slides were counted per experimental group. The number of normal glomeruli was expressed as a percentage of the total number of glomeruli counted.

(H)-CYFDDSSNVLCKKYRS-(OH) (H-CYFDDSSNVLCKKYRS-OH; disulfide 1-11; SMILES CC(C)C[C@@H]1NC(=O)[C@H](C(C)C)NC(=O)[C@H](CC(N)=O)NC(=O)[C@H](CO)NC(=O)[C@H](CO)NC(=O)[C@H](CC(=O)O)NC(=O)[C@H](CC(=O)O)NC(=O)[C@H](Cc2ccccc2)NC(=O)[C@H](Cc2ccc(O)cc2)NC(=O)[C@@H](N)CSSC[C@@H](C(=O)N[C@@H](CCCCN)C(=O)N[C@@H](CCCCN)C(=O)N[C@@H](Cc2ccc(O)cc2)C(=O)N[C@@H](CCCNC(=N)N)C(=O)N[C@@H](CO)C(=O)O)NC1=O) [SEQ ID NO: 1]
share of the injected dose in the beta phase ([1]; iv): 10%
alpha phase half-life ([1]; iv, 125I-labeled): very short half-life
beta phase half-life ([1]; iv, 125I-labeled): 55 to 58 min
decrease of THR-123 levels in plasma and whole blood within 5 minutes ([1]; iv, 125I-labeled): ~90%
share of the injected dose in the alpha phase ([1]; iv, tail vein, total radioactivity): approximately 90%
clearance of radioactivity from the kidney ([1]; oral, 24 hours after administration): completely cleared
tissue distribution of radioactivity ([1]; six hours after iv 6.25 mg/kg, listed as THR-123, 6.25 mg/kg): majority of the radioactivity was still localized in the kidney and bladder
blood urea nitrogen level (COL4A3−/− mice; THR-123 p.o. 5 mg/Kg/day): significantly improved blood urea nitrogen level
tubular atrophy and interstitial fibrosis (COL4A3−/− mice; THR-123 p.o. 5 mg/Kg/day): significantly inhibited tubular atrophy and interstitial fibrosis
glomerular abnormalities (COL4A3−/− mice; THR-123 p.o. 5 mg/Kg/day, 8 to 16 weeks of age): did not alter glomerular abnormalities
acquisition of an EMT program (COL4A3−/− mice; mouse, in vivo): inhibited such acquisition of an EMT program
macrophage infiltration (COL4A3−/− mice; mouse, in vivo): inhibited macrophage infiltration
phospho-smad1/5 accumulation (COL4A3−/− mice; mouse, in vivo): increased accumulation of phospho-smad1/5
